According to the supplement of paper PMC9170038:

System: MS2 coat protein
Assay: apparent KD of MS2 coat protein; designed switch direction (-1 OFF switch, 1 ON switch): -1; higher = weaker reporter binding
In short: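 Designed RNA switches with common flanks were made on Illumina chips by stalled E. coli RNA polymerase. Titration with SNAP-549-labelled MS2 coat protein doubled from 0.7 or 1.5 nM up to 3 µM. Apparent KD is each design's median over clusters after curve-fitting normalised fluorescence.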

[1] = input ligand: microRNA oligo, concentration not stated
[2] = Eterna round: R95, input ligand: FMN 200 uM
[3] = Eterna round: R95, input ligand: microRNA oligo, concentration not stated
[4] = Eterna round: R95, input ligand: none

Sequence	apparent KD of MS2 coat protein (input ligand: FMN 200 uM)	apparent KD of MS2 coat protein [1]	apparent KD of MS2 coat protein (input ligand: none)	apparent KD of MS2 coat protein [2]	apparent KD of MS2 coat protein [3]	apparent KD of MS2 coat protein [4]
AAGGUACGAGGAUAUACAUAGAUACAGACACAUGUGCAUGUACAUGAGGAUCACCCAUGUAGAAGGCGUAUAUA [AJ 18] (Eterna round: R96, puzzle: Exclusion 2)	248 nM	50.2 nM	51.8 nM			
AAGUAACAUGAGGAUCACCCAUGUUAGGAUAUCUCGGCCACAGGAACGCUGUAAAGCCAGAGAAGGAGCGGGUG [Mabi] (Eterna round: R97, puzzle: Exclusion 1)	156 nM		127 nM			
AAGUACCGUCACGAAAGUGAUGGUACAACAAGCAAAUGUACAUGAGGAUCACCCAUGUCCUCAAUUGCUCGUCUUAU [Sensor 3 - 57] (puzzle: Sensor v3, turn-off variant 2)				88.2 nM	176 nM	92.8 nM
AAGUACCGUCACGAUAGUGAUGGUACAACAAGCAGUGAAACAUGAGGAUCACCCAUGUCCUCGAUUGCUCGUCUUAU [Sensor 3 - 80] (puzzle: Sensor v3, turn-off variant 2)				67.7 nM	142 nM	66.3 nM
AAGUACUACAAGCUUCGGGACAUGAGGAUCACCCAUGUUCGUCUUAUUGAUCUAGGUACGCUGACGUACCUAGAUCU [Mat - Sensor v3 - turn-off var 1 - JL Mod - D11] (puzzle: Sensor v3, turn-off variant 1)				14.1 nM	39.2 nM	14.2 nM
AAGUAGGCAGGAUAUACAUGAGGAUCACCCAUGUGCCUAUACAAGGUAAUCUUGGGAGGUAGAAGGGCCUACAA [ChP 13.04.2015 #3] (puzzle: Exclusion 3)					33 nM	
AAGUCGAGCGUGAGGAUAUCGUUCGAACGACCGAACGAGAAGGCACAUGAGGAUCACCCAUGUGAUUCAGUUCA [Brourd's EX4 #46] (Eterna round: R97, puzzle: Brourd's mod of Exclusion 4)	39.8 nM		17.8 nM			
AAUAAACAUGAGGAUCACCCAUGUGAGGAUAUGCAAAUAAAUAAAUAAAUAAAUAAUAGUAGAAGGCGCAAUAA [Excls1-I] (puzzle: Exclusion 1)				34 nM	52.6 nM	63 nM
AAUAAAGGAGGAUAUACAUGAGGAUCACCCAUGUGAAUAAAAUAAAUAAAAUGAUAAAGUAGAAGGCCUAAUAA [JMF's solution 3] (puzzle: Exclusion 3)				33.5 nM	33.3 nM	49.7 nM
AAUAACAAUGUGAGGAUAUCUAGAGCCUCGGCUCUAGAGAAGGCACAUGAGGAUCACCCAUGUCUCAAUAACAA [BmEx4/2-E7] (Eterna round: R97, puzzle: Brourd's mod of Exclusion 4)	502 nM		52.7 nM			
AAUAACAGAGGAUAUACUAUUUUAUGUAUUUAUUAUUUUAAACAUGAGGAUCACCCAUGUAGAAGGCUGAAUAA [JMF 11] (puzzle: Exclusion 2)					19.8 nM	
AAUAACAGAGGAUAUACUGUUUUAUGUGUUUGUUAUUUUAAACAUGAGGAUCACCCAUGUAGAAGGCUGAGUAA [JMF 30] (puzzle: Exclusion 2)					25 nM	
AAUAACAGAGGAUAUGCGAAUAAAUAAAACUUUUUUUUUUAACAUGAGGAUCACCCAUGUAGAAGGCUGAUAUU [Ex2 #21] (Eterna round: R97, puzzle: Exclusion 2)	35.6 nM		37 nM			
AAUAAGUUAGGAUAUACAUGAGGAUCACCCAUGUCCCACCCGUUACCUAUGACCAUAUGUAGAAGGAGCAAUAA [Exy#2] (Eterna round: R97, puzzle: Exclusion 3)	62.1 nM		32.7 nM			
AAUAAUAAGGAGGAUAUCCUAACCGAAAGGUUAGGAGAAGGCCUAACAUGAGGAUCACCCAUGUUCCUCAAUAA [Mat - Exclusion 6 - Eli Mod - D57] (puzzle: Exclusion 6)				318 nM	236 nM	118 nM
AAUAAUCGAGGAUAUACUAAAAUAUGAAUAAAAUAAAUAAAACAUGAGGAUCACCCAUGUAGAAGGCGAAAUAA [JMF's Not so obvious solution 1] (puzzle: Exclusion 2)				20.8 nM	24.1 nM	29.5 nM
AAUAAUGAUAAGGAUAUUACUAGCGAUAGCUAGUGAGAAGGUAUCACAUGAGGAUCACCCAUGUGUUCCAAUAA [Ex6/6-B4] (Eterna round: R97, puzzle: Exclusion 6)	70.1 nM		17.3 nM			
AAUAAUGGAGGAUAUACAUGAGGAUCACCCAUGUGAAUAAAAUAAAUAAAAUGAUAAAGUAGAAGGCCAAAUAA [JMF's solution 2] (puzzle: Exclusion 3)				42.7 nM	39.9 nM	53.6 nM
AAUACAAGCUAUUGAUCCCACAUGAGGAUCACCCAUGUAUAUGCCCGUGACACGUGCAUGACGAUAGCUCGUCUUAU [Sensor-V1 #60] (Eterna round: R97, puzzle: Sensor, turn-off variant 1)	85.8 nM		102 nM			

Sequence	apparent KD of MS2 coat protein (input ligand: FMN 200 uM)	apparent KD of MS2 coat protein [1]	apparent KD of MS2 coat protein (input ligand: none)	apparent KD of MS2 coat protein [2]	apparent KD of MS2 coat protein [3]	apparent KD of MS2 coat protein [4]
AAUACCCGAGGAUAUCUAAUUCGGCACAUGAGGAUCACCCAUGUGAUCUGACCUAGCCGAGGAGAAGGCGGGUCAG [Errizabe] (puzzle: Exclusion 5)				25.8 nM	12.9 nM	12.1 nM
AAUACCGGUCUGCCUAAAGACAUGAGGAUCACCCAUGUCUGAUUCUCAACAGGCCUUUUGCUUCUCUUAACUACACA [Vetilage] (puzzle: Sensor v3, turn-off variant 1)				13.9 nM	23.1 nM	12.6 nM
AAUCCACAUGAGGAUCACCCAUGUCAGGAUAUCGCGCGCGCGGUUUCGGUCGCGCGCGCGAGAAGGGACGGCUG (puzzle: Exclusion 1)					22.1 nM	
AAUCUUCUAGGAUAUAUAUGGUAGCGGGAGAACCCAGUCACACAUGAGGAUCACCCAUGUAGAAGGAGAAUAGG [Eternabot (L1) Solution 87] (Eterna round: R97, puzzle: Exclusion 2)	107 nM		99.7 nM			
AAUGAUGAUGUGAGGAUAUACAUAGUUAGAAAGUAGUAGAAGGCACAUGAGGAUCACCCAUGUAGAUGUAAGGU [JR_BME4_Sub001] (puzzle: Brourd's mod of Exclusion 4)				52.5 nM	26.3 nM	24.6 nM
AAUGCCGUAGGAUAUAUAUGGCAGAUCGCACGUCCUGAAAGACAUGAGGAUCACCCAUGUAGAAGGGCGGAAAC [Ceisisan] (puzzle: Exclusion 2)					14.1 nM	
AAUGCGAGUGUUAGGAUAUACAAGGAUCCAUAUUUGUAGAAGGAACAUGAGGAUCACCCAUGUAAGGGAAUAAA [Enususxebe] (puzzle: Brourd's mod of Exclusion 4)				166 nM	59.5 nM	65.7 nM
AAUGGUAAAGUCAGGAUAUACGUAAGUCGUUCUAGGUAGAAGGGACAUGAGGAUCACCCAUGUAUGAUAGUAAA [Ex4 #33] (Eterna round: R97, puzzle: Brourd's mod of Exclusion 4)	25.4 nM		44.6 nM			
AAUUAACAUGUAGGAUAUCUGCACGUUUAGUGCAGAGAAGGACAUGAGGAUCACCCAUGUAUAGCGACUUCGGUCGCAAUAAUU [ENG1/2-B2] (Eterna round: R96, puzzle: Exclusion NG 1)	377 nM	105 nM	131 nM			
AAUUAGUGAGGAUAUUUGAACAGUGGCAGUAGCCAGUGCAUGAAGAAGGCACAUGAGGAUCACCCAUGUUAUAA [EX4 #58] (Eterna round: R97, puzzle: Exclusion 4)	70.5 nM		39.8 nM			
AAUUAUUAUCGAGGAUAUCGUAUUGAAAUAAUAUGAGAAGGCGGGAUAAACAUGAGGAUCACCCAUGUGAGCCUGAUGCUUGUG [Ex NG1 #38] (Eterna round: R96, puzzle: Exclusion NG 1)		14.9 nM				
AAUUCACAAGCGAGAUCCCACAUGAGGAUCACCCAUGUGCUCGUCUUAUAAGGUACUGUGACGAGAGUCACGGUACC [Mat - Sensor, turn-off var - Eli Mod - D88] (Eterna round: R97, puzzle: Sensor, turn-off variant 1)	15.7 nM		16 nM			
AAUUCACAUGAGGAUCACCCAUGUCAGGAUAUGGUUUCGCGGGUUUCGGUGCGUGAGGCCAGAAGGGACAGCUA (puzzle: Exclusion 1)					49.2 nM	
AAUUCGAGAGGAUAUACAGGUGAUAUGUAGAAGCCUCGAGCACAUGAGGAUCACCCAUGUAGAAGGCUCAUAUA [EX2 A.11] (Eterna round: R97, puzzle: Exclusion 2)	262 nM		29.6 nM			
AAUUUACAUGAGGAUCACCCAUGUCAGGAUAUGGUUUUAUUUUUUUCUUUUUUUGAUUCCAGAAGGGACAGUUA (puzzle: Exclusion 1)					91.5 nM	
AAUUUACAUGAGGAUCACCCAUGUGAGGAUAUGAUACUAUGUACUUCGGUACAUAGUAUCAGAAGGCAUGUGGA [Ex1-3: 91] (puzzle: Exclusion 1)					115 nM	
AAUUUACAUGAGGAUCACCCAUGUGAGGAUAUGGAUUCGCUGGCCGUAGCCAGUGGAUCCAGAAGGCGCGUGAU [JL-ex1-4.28] (Eterna round: R97, puzzle: Exclusion 1)	182 nM		98.2 nM			
AAUUUGUGAGGAUAUCCAAUAUAUGACAUGAGGAUCACCCAUGUUUCCACUCGUACCUCCGGAGAAGGCACUGCAA [Ex5 #38] (Eterna round: R97, puzzle: Exclusion 5)	21.4 nM		23.6 nM			
